Laboratory results published in IntAct's records for PubMed 36931259.

B1: 14-3-3 protein sigma (Homo sapiens), P31947 (parent)
chain: MERASLIQKAKLAEQAERYEDMAAFMKGAVEKGEELSCEERNLLSVAYKNVVGGQRAAWRVLSSIEQKSNEEGSEEKGPEVREYREKVETELQGVCDTVLGLLDSHLIKEAGDAESRVFYLKMKGDYYRYLAEVATGDDKKRIIDSARSAYQEAMDISKKEMPPTNPIRLGLALNFSVFHYEIANSPEEAISLAKTTFDEAMADLHTLSEDSYKDSTLIMQLLRDNLTLWTADNAGEEGGEAPQEPQS
partner: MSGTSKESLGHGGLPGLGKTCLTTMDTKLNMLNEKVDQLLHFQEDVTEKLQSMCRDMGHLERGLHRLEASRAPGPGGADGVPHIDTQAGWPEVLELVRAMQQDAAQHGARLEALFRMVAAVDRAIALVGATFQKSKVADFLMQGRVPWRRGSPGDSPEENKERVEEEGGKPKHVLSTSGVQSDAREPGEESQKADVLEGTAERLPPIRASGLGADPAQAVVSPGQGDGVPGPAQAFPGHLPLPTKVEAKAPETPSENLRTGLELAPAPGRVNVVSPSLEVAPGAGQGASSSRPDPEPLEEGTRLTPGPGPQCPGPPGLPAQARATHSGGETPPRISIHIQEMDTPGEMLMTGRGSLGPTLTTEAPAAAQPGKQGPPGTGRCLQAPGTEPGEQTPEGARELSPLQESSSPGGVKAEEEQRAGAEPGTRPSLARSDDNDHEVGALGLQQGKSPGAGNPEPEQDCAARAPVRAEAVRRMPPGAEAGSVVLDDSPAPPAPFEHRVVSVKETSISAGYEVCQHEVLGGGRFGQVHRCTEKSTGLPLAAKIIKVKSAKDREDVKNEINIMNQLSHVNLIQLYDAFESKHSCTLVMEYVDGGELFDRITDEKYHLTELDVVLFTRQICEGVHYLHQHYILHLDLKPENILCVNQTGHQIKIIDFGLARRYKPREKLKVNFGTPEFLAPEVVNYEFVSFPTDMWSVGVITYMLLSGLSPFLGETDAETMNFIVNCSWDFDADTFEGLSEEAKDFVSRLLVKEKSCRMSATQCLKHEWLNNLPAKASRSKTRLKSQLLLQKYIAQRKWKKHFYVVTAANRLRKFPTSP
B2: 14-3-3 protein sigma (Homo sapiens), P31947 (parent)
chain: B1 chain
partner: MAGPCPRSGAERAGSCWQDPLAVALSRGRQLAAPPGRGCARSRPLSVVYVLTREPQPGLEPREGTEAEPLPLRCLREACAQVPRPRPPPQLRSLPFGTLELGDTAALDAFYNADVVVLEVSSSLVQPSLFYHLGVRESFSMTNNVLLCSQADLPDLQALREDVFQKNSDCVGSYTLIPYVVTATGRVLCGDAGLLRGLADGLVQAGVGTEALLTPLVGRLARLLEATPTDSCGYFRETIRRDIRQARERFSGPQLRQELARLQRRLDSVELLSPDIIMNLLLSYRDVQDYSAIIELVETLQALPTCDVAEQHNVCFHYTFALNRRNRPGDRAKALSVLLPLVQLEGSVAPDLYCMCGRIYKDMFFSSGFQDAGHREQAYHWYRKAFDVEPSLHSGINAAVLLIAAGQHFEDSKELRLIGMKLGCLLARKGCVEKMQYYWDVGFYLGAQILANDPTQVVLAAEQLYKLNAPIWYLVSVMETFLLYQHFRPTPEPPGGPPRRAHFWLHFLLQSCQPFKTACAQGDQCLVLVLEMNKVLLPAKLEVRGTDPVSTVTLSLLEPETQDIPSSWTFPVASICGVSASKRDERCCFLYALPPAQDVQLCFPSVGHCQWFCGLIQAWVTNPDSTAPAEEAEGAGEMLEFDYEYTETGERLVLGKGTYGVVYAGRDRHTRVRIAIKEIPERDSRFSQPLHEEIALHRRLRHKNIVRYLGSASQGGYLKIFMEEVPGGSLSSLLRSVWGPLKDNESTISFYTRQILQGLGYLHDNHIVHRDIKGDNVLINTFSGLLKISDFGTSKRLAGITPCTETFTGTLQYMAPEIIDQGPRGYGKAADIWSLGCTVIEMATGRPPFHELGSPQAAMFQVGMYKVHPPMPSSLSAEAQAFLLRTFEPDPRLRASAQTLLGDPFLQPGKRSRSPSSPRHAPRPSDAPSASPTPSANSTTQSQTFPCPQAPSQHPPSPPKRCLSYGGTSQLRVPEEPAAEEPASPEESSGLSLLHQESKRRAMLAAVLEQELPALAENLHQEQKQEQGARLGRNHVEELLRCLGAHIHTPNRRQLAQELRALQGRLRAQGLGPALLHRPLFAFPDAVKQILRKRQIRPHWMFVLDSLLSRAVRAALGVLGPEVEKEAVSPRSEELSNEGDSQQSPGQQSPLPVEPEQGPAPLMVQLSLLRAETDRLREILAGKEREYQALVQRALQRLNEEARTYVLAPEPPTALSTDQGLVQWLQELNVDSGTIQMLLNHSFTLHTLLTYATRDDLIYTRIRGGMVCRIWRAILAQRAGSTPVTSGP
B3: 14-3-3 protein sigma (Homo sapiens), P31947 (parent)
chain: B1 chain
partner: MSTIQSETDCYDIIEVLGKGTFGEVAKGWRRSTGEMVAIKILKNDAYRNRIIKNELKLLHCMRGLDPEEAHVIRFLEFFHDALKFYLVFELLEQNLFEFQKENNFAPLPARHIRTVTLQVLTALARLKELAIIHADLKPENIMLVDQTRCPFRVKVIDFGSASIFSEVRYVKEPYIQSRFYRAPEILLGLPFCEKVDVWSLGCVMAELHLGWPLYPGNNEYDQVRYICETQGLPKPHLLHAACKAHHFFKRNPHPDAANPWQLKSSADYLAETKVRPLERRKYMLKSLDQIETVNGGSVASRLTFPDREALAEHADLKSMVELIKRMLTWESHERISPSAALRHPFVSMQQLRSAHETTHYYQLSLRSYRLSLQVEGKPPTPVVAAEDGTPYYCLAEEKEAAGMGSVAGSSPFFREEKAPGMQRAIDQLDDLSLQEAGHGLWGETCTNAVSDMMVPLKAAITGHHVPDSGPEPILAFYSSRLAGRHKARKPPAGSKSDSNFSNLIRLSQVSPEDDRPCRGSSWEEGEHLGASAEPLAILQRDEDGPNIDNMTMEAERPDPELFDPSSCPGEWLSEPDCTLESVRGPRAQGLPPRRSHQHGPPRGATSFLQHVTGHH
B4: 14-3-3 protein sigma (Homo sapiens), P31947 (parent)
chain: B1 chain
partner: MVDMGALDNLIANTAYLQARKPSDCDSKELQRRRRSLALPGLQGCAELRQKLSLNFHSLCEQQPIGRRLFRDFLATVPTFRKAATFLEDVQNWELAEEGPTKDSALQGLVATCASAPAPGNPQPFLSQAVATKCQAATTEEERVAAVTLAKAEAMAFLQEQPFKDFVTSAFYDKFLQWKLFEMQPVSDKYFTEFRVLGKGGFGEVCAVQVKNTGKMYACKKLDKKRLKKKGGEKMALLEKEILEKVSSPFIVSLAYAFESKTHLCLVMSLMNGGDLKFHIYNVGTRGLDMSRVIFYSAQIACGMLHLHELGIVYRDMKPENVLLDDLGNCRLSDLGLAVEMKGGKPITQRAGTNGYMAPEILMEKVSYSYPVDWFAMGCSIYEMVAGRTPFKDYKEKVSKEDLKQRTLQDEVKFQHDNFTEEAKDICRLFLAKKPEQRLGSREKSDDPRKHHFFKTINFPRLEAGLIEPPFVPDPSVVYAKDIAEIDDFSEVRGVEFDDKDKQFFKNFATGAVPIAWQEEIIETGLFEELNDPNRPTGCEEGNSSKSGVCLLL
B5: 14-3-3 protein sigma (Homo sapiens), P31947 (parent)
chain: B1 chain
partner: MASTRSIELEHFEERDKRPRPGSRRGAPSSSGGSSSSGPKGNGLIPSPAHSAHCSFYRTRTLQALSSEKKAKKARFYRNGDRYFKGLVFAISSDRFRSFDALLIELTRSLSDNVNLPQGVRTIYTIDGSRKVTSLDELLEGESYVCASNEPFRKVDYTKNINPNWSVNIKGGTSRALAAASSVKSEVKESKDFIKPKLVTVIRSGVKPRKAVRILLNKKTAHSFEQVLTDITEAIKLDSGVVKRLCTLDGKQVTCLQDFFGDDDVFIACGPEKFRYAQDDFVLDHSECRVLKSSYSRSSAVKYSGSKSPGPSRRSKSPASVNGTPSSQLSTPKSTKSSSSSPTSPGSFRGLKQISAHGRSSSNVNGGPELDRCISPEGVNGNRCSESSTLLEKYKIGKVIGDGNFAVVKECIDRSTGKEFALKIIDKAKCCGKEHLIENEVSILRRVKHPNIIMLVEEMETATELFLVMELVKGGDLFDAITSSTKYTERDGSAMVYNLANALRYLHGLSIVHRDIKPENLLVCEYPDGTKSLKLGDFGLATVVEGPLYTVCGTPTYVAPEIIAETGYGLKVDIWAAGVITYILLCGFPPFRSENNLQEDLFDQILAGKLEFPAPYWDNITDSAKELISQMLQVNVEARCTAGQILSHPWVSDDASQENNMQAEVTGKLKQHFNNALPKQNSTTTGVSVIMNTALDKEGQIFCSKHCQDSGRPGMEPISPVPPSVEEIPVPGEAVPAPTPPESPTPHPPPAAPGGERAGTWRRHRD
B6: 14-3-3 protein sigma (Homo sapiens), P31947 (parent)
chain: B1 chain
partner: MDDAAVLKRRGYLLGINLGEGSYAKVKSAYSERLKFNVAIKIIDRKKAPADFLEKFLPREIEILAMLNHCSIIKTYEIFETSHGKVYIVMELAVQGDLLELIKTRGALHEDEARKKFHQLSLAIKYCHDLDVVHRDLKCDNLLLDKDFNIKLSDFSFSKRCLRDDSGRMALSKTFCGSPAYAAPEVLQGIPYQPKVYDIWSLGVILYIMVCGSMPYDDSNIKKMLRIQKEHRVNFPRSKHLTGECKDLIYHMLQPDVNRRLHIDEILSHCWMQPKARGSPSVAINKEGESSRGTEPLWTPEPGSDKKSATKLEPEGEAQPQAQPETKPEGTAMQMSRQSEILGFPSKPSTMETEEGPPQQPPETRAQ

Variants of: B1
Details: with mylk3_human MYLK3, Q32MK0

Q: For K49E;R56E;V178D, which “effect of a mutation on the interaction” value is on record?
A: decreasing interaction strength

Variants of: B2
Details: with m3k6_human MAP3K6, O95382

Q: K49E;R56E;V178D was tested. Which “effect of a mutation on the interaction” value did it give?
A: decreasing interaction strength

Variants of: B3
Details: with hipk4_human HIPK4, Q8NE63

Q: For K49E;R56E;V178D, which “effect of a mutation on the interaction” value is on record?
A: decreasing interaction strength

Variants of: B4
Details: with grk7_human GRK7, Q8WTQ7

Q: With K49E;R56E;V178D as the variant, how does the “effect of a mutation on the interaction” value read?
A: decreasing interaction strength

Variants of: B5
Details: with dclk2_human DCLK2, Q8N568

Q: K49E;R56E;V178D was tested. Which “effect of a mutation on the interaction” value did it give?
A: decreasing interaction strength

Variants of: B6
Details: with tssk1_human TSSK1B

Q: K49E;R56E;V178D was tested. Which “effect of a mutation on the interaction” value did it give?
A: decreasing interaction strength
